Measured values published in patent publication US20220411483A1 (Chugai, published 2022).
Positions count from the first letter of the chain named.

T1: human FcγRIIa R type extracellular domain with C-terminal His tag (human, UniProt P12318 34-217)
T1 construct: extracellular domain; also called FcgRIIaR
T1 sequence (looked up): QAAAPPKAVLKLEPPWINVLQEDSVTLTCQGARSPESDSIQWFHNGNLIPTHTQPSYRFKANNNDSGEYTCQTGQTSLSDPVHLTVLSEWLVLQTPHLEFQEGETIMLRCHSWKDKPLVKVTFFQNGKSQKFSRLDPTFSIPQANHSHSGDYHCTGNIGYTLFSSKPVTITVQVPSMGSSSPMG

T2: human FcγRIIb extracellular domain with C-terminal His tag (human, UniProt P31994 43-217)
T2 construct: extracellular domain; also called FcgRIIb
T2 sequence (looked up): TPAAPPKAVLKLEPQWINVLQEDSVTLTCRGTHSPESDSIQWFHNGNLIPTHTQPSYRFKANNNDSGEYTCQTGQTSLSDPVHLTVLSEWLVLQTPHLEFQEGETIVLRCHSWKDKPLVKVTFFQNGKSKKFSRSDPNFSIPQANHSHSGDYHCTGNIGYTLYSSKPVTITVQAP

T3: FcgRIIaR (human, UniProt P12318 34-217)
T3 construct: extracellular domain; also called FcγRIIa R type; FcγRIIa (R type)
T3 sequence (looked up): T1 sequence (looked up)

T4: FcgRIIb (human, UniProt P31994 43-217)
T4 construct: extracellular domain; also called FcγRIIb
T4 sequence (looked up): T2 sequence (looked up)

T5: human FcγRIIa H type extracellular domain with C-terminal His tag (human, UniProt P12318 34-217)
T5 construct: extracellular domain; also called FcgRIIaH
T5 sequence (looked up): T1 sequence (looked up) with R134H

B1: IL6R-P787/IL6R-L (antibody, human IgG1, kappa)
heavy: QVQLQESGPGLVKPSETLSLTCAVSGHSISHDHAWSWVRQPPGEGLEWIGFISYSGITNYNPSLQGRVTISRDNSKNTLYLQMNSLRAEDTAVYYCARSLARTTAMDYWGEGTLVTVSSASTKGPSVFPLAPSSKSTSGGTAALGCLVKDYFPEPVTVSWNSGALTSGVHTFPAVLQSSGLYSLSSVVTVPSSSLGTQTYICNVNHKPSNTKVDKKVEPKSCDKTHTCPPCPAPDLLGDDSVFLFPPKPKDTLMISRTPEVTCVVVDVSHEDPEVKFNWYVDGVEVHNAKTKPREEQYNATYRVVSVLTVLHQDWLNGKEYKCKVSNKGLPSSIEKTISKAKGQPREPQVYTLPPSRDELTKNQVSLTCLVKGFYPSDIAVEWESNGQPENNYKTTPPVLDSDGSFFLYSKLTVDKSRWQQGNVFSCSVMHEALHNHYTQKSLSLSP
light: not shown
B2: IL6R-P562/IL6R-L (antibody, human IgG1, kappa)
heavy: B1 heavy with H270E, P273G, A300S, G329A, S332A, S333P
light: not shown
B3: IL6R-P588/IL6R-L (antibody, human IgG1, kappa)
heavy: B1 heavy with D235E, D239G, V266I, S269A, H270E, P273G, A300S, G329A, S332A, S333P
light: not shown
B4: IL6R-P559/IL6R-L (antibody, human IgG1, kappa)
heavy: B1 heavy with D235E, H270E, P273G, A300S, G329A, S332A, S333P
light: not shown
B5: IL6R-P733/IL6R-L (antibody, human IgG1, kappa)
heavy: QVQLQESGPGLVKPSETLSLTCAVSGHSISHDHAWSWVRQPPGEGLEWIGFISYSGITNYNPSLQGRVTISRDNSKNTLYLQMNSLRAEDTAVYYCARSLARTTAMDYWGEGTLVTVSSASTKGPSVFPLAPSSKSTSGGTAALGCLVKDYFPEPVTVSWNSGALTSGVHTFPAVLQSSGLYSLSSVVTVPSSSLGTQTYICNVNHKPSNTKVDKKVEPKSCDKTHTCPPCPAPELFGQDSVMLFPPKPKDTLMISRTPEVTCVVVDVSPEDPEVKFNWYVDGVEVHNAKTKPREEQENSTYRVVSVLTVLHQDWLNGKEYKCKVHNKALPAPIEKTISKAKGQPREPQVYTLPPSRDELTKNQVSLTCLVKGFYPSDIAVEWESNGQPENNYKTTPPVLDSDGSFFLYSKLTVDKSRWQQGNVFSCSVMHEALHNHYTQKSLSLSP
light: not shown
B6: IL6R-P737/IL6R-L (antibody, human IgG1, kappa)
heavy: B5 heavy with F237L, A332H
light: not shown
B7: IL6R-P555/IL6R-L (antibody, human IgG1, kappa)
heavy: B1 heavy with D235E, H270D, P273G, A300S, G329A, S332A, S333P
light: not shown
B8: IL6R-P729/IL6R-L (antibody, human IgG1, kappa)
heavy: B5 heavy with H326S
light: not shown
B9: IL6R-P691/IL6R-L (antibody, human IgG1, kappa)
heavy: B5 heavy with P270H, H326S
light: not shown
B10: IL6R-P785/IL6R-L (antibody, human IgG1, kappa)
heavy: B1 heavy with D239G
light: not shown
B11: IL6R-P727/IL6R-L (antibody, human IgG1, kappa)
heavy: B5 heavy with F237L, H326S, A332H
light: not shown
B12: IL6R-P786/IL6R-L (antibody, human IgG1, kappa)
heavy: B1 heavy with D235E
light: not shown
B13: IL6R-P556/IL6R-L (antibody, human IgG1, kappa)
heavy: B1 heavy with H270D, P273G, A300S, G329A, S332A, S333P
light: not shown
B14: IL6R-P786/IL6R-L (antibody, human IgG1, kappa)
heavy: B1 heavy with D235E
light: not shown
B15: IL6R-P787/IL6R-L (antibody, human IgG1, kappa)
heavy: B1 heavy
light: not shown

target: T6, human FcγRIa extracellular domain with C-terminal His tag (human, UniProt P12314 16-292); assay: SPR, antibody captured, FcgR analyte
T6 construct: Whole entry named; also called FcgRIa
T6 sequence (P12314 16-292): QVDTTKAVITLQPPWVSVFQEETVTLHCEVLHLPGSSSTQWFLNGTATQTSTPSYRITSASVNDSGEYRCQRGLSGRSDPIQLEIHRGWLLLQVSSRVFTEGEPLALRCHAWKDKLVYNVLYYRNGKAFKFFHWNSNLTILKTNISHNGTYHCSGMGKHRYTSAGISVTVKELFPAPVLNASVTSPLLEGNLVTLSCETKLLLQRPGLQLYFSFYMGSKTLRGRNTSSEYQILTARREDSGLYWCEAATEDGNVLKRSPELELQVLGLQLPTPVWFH

| Binder | Kd |
| --- | --- |
| B1 | 56 nM |
| B2 | 4.2 nM |
| B3 | 1.4 nM |
| B4 | 9.1 nM |
| B5 | 200 nM |
| B6 | 46 nM |
| B7 | 11 nM |
| B8 | 220 nM |
| B9 | 130 nM |
| B10 | 23 nM |
| B11 | 71 nM |
| B12 | 120 nM |
| B13 | 3.7 nM |

target: T1, human FcγRIIa R type extracellular …; assay: SPR, antibody captured, FcgR analyte

| Binder | Kd |
| --- | --- |
| B2 | 2000 nM |
| B3 | 1600 nM |
| B4 | 2400 nM |
| B5 | 13000 nM |
| B6 | 37000 nM |
| B7 | 2800 nM |
| B8 | 16000 nM |
| B9 | 28000 nM |
| B11 | 34000 nM |
| B13 | 2400 nM |

target: T2, human FcγRIIb extracellular domain with …; assay: SPR, antibody captured, FcgR analyte

| Binder | Kd |
| --- | --- |
| B1 | 4600 nM |
| B2 | 130 nM |
| B3 | 38 nM |
| B4 | 140 nM |
| B5 | 4500 nM |
| B6 | 4300 nM |
| B7 | 210 nM |
| B8 | 3000 nM |
| B9 | 2300 nM |
| B10 | 7900 nM |
| B11 | 2700 nM |
| B12 | 8500 nM |
| B13 | 180 nM |

target: T3, FcgRIIaR; assay: SPR, amount bound per captured antibody

| Binder | Relative FcgRIIaR-binding Activity |
| --- | --- |
| B14 | 11.5 IL6R-G1d/IL6R-L=100 |
| B15 | 14.7 IL6R-G1d/IL6R-L=100 |

target: T4, FcgRIIb; assay: SPR, amount bound per captured antibody

| Binder | Relative FcgRIIb-binding Activity |
| --- | --- |
| B14 | 62.4 IL6R-G1d/IL6R-L=100 |
| B15 | 84 IL6R-G1d/IL6R-L=100 |

target: T7, human complement C1q (human, UniProt P02745 23-245; P02746 28-253; P02747 29-245); assay: SPR, C1q bound per antibody captured on Protein L
T7 construct: Bought (PROSPEC or Calbiochem); also called human C1q
T7 sequence (P02745 23-245 limits assumed, chain 1 of 3): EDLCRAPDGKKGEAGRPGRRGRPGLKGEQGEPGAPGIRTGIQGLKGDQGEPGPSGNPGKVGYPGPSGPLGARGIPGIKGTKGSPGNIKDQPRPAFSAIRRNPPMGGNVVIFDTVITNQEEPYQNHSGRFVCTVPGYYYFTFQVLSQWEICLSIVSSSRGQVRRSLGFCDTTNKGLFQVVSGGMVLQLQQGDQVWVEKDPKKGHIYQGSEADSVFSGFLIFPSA
T7 sequence (P02746 28-253 limits assumed, chain 2 of 3): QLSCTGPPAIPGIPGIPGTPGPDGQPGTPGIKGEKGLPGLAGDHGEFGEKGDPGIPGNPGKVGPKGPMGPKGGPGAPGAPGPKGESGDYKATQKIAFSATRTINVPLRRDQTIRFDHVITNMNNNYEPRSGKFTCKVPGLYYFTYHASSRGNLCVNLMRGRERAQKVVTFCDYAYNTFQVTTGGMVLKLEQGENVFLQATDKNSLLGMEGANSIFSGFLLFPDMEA
T7 sequence (P02747 29-245 limits assumed, chain 3 of 3): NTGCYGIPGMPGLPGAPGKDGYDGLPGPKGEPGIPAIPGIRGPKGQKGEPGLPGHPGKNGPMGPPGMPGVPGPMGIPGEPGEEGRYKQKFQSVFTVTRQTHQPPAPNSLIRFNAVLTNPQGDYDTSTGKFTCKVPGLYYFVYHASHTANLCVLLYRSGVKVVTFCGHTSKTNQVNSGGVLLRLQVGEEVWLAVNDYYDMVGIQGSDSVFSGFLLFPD
Method in brief: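 Antibodies captured on Protein L immobilized on a CM4 chip were exposed to human C1q diluted in HBS-EP+ running buffer at 25° C. C1q binding was normalized as C1q bound divided by antibody captured. The surface was regenerated with 10 mM glycine-HCl, pH 1.5.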

| Binder | Amount of C1q-binding when that for G1d is Defined as 100 |
| --- | --- |
| B14 | 12.9 G1d=100 |
| B15 | 24 G1d=100 |

target: T6, human FcγRIa extracellular domain with …; assay: SPR, KD of IL6R-G1d/IL6R-L divided by KD of variant

| Binder | Relative FcgRIa-binding Activity |
| --- | --- |
| B1 | 0.006 |
| B2 | 0.076 |
| B3 | 0.229 |
| B4 | 0.035 |
| B5 | 0.002 |
| B6 | 0.007 |
| B7 | 0.029 |
| B8 | 0.001 |
| B9 | 0.002 |
| B10 | 0.014 |
| B11 | 0.005 |
| B12 | 0.003 |
| B13 | 0.086 |

target: T1, human FcγRIIa R type extracellular …; assay: as above

| Binder | Relative FcgRIIaR-binding Activity |
| --- | --- |
| B1 | 0.02 |
| B2 | 0.55 |
| B3 | 0.69 |
| B4 | 0.46 |
| B5 | 0.08 |
| B6 | 0.03 |
| B7 | 0.39 |
| B8 | 0.07 |
| B9 | 0.04 |
| B10 | 0.01 |
| B11 | 0.03 |
| B12 | 0.02 |
| B13 | 0.46 |

target: T5, human FcγRIIa H type extracellular …; assay: as above

| Binder | Relative FcgRIIaH-binding Activity |
| --- | --- |
| B1 | 0.007 |
| B2 | 0.022 |
| B3 | 0.034 |
| B4 | 0.021 |
| B5 | 0.014 |
| B6 | 0.016 |
| B7 | 0.021 |
| B8 | 0.013 |
| B9 | 0.01 |
| B10 | 0.007 |
| B11 | 0.015 |
| B12 | 0.006 |
| B13 | 0.019 |

target: T2, human FcγRIIb extracellular domain with …; assay: as above

| Binder | Relative FcgRIIb-binding Activity |
| --- | --- |
| B1 | 0.5 |
| B2 | 16.2 |
| B3 | 55.3 |
| B4 | 15 |
| B5 | 0.5 |
| B6 | 0.5 |
| B7 | 10 |
| B8 | 0.7 |
| B9 | 0.9 |
| B10 | 0.3 |
| B11 | 0.8 |
| B12 | 0.2 |
| B13 | 11.7 |

target: T8, human FcγRIIIa V type extracellular domain with C-terminal His tag (human, UniProt P08637 17-208); assay: as above
T8 construct: extracellular domain; also called FcgRIIIaV
T8 sequence (P08637 17-208 F176V): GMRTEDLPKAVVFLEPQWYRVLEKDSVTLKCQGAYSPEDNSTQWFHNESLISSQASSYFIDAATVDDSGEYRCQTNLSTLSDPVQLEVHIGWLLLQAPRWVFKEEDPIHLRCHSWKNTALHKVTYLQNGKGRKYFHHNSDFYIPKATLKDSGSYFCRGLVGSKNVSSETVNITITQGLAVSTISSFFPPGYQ

| Binder | Relative FcgRIIIaV-binding Activity |
| --- | --- |
| B1 | 0.01 |
| B2 | 0.007 |
| B3 | 0.011 |
| B4 | 0.009 |
| B5 | 0.007 |
| B6 | 0.007 |
| B7 | 0.009 |
| B8 | 0.006 |
| B9 | 0.004 |
| B10 | 0.009 |
| B11 | 0.007 |
| B12 | 0.01 |
| B13 | 0.007 |
